Where “and” joins values, the source holds several entries; their conditions need not be identical. Identical values can stand only once.
Legend:
[1] = molecular target: T1, human BCAM antigen protein expressed on the cell surface (human, UniProt P50895 32-628); experiment: flow cytometry on HEK293FT cells transfected with human BCAM
T1 construct: whole, on cells; also called human BCAM expressed on the cell surface; BCAM on HEK293FT cells transfected with the 293FT/BCAM plasmid
T1 sequence (looked up): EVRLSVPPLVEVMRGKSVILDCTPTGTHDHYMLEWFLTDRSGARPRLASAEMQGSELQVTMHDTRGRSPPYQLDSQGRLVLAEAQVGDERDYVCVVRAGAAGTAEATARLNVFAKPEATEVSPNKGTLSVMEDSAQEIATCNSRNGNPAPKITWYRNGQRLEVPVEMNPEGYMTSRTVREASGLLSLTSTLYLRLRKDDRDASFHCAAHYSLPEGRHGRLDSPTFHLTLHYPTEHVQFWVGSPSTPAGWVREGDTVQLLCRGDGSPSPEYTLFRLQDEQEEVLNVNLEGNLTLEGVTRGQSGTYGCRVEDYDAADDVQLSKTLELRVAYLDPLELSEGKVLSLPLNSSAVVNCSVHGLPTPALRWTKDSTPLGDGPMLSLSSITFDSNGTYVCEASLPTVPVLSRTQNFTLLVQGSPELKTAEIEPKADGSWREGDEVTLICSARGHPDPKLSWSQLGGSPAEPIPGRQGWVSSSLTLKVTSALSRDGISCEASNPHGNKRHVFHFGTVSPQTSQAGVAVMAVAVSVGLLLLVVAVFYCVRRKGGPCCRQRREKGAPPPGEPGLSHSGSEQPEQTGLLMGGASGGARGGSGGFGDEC

[2] = molecular target: T2, human BCAM protein (10238-H08H, SinoBiological, China) (human, UniProt P50895 32-547); experiment: ELISA, plate coated with human BCAM, anti-human IgG Fc-HRP detection
T2 construct: Bought recombinant protein; also called antigen protein; Lu
T2 sequence (looked up): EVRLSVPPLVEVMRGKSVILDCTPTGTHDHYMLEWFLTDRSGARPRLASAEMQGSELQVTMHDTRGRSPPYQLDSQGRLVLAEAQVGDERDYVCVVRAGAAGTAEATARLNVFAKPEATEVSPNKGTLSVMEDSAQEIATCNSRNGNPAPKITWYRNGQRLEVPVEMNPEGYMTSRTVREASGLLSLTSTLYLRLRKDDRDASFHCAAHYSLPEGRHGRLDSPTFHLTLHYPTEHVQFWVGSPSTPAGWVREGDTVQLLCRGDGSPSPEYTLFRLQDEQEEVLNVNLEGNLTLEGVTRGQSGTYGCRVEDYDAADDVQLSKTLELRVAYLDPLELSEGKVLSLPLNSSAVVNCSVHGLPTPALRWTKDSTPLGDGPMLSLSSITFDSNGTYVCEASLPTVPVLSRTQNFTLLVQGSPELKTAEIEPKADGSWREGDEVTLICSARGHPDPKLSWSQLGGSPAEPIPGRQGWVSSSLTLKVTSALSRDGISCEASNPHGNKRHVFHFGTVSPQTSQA

[3] = molecular target: T2, human BCAM protein (10238-H08H, …); experiment: BLI (Octet R8), human BCAM amine-coupled on AR2G biosensors, antibody in solution, 1:1 model
[4] = tested on: DU145; experiment: In vitro anticancer effect, CellTiter-Glo cell viability; format: cell-based, human; details: DU145, 72 hours
Description: (§1) An in vitro experiment was conducted to confirm the anticancer effect of the Ab-II antibody-drug conjugate produced in Example 4 on human cell lines that express high levels of BCAM.
(§2) 5 x 10^3 cells of SK-BR-3 (human breast cancer cell line, KCLB), OVCAR3 (human ovarian cancer cell line, KCLB), and DU145 (human prostate cancer cell line, KCLB) were seeded into a 96-well plate (3595, Corning, USA). The next day, after confirming cell attachment to the plate, the existing cell culture was removed. Ab-II, produced in Example 4, was serially diluted in cell culture medium from 1 µM in a 5-fold dilution series across 8 points (down to 12.8 pM), and 200 µL was added to each well. On the day of drug treatment, the luminescence of the negative control (0% control, untreated with the drug) was measured. The culture medium was removed, 100 µL of CellTiter-Glo® (Promega, USA) solution was added to each well, and after reacting for 10 minutes at room temperature, the luminescence was measured with a microplate reader (Synergy H1, Biotek, USA). The experimental group treated with the drug and the positive control group (100% control, untreated with the drug) were reacted for 72 hours in a 37°C CO2 incubator. Afterward, the culture medium was removed, 100 µL of CellTiter-Glo® solution was added to each well, and after reacting for 10 minutes at room temperature, the luminescence was measured with the microplate reader. The % cell viability for Ab-II was calculated by substituting into the formula: [(Ab-II treated group) - (0% control group)] / [(100% control group) - (0% control group)]. The GI50 (half-maximal growth inhibition concentration) value of Ab-II for each cell line was calculated using GraphPad Prism (GraphPad software Inc., USA) based on the % cell viability.

[5] = tested on: OVCAR3; experiment: as above; format: cell-based, human; details: OVCAR3, 72 hours
Description: as §1, §2

[6] = tested on: SK-BR-3; experiment: as above; format: cell-based, human; details: SK-BR-3, 72 hours
Description: as §1, §2

[7] = molecular target: T2, human BCAM protein (10238-H08H, …); experiment: ELISA, plate coated with 7 nM human BCAM, anti-human IgG Fc-HRP detection

B1: Ab-I antibody (anti-BCAM human IgG4 antibody) (antibody, V domains shown)
VH: EVQLVESGGGLVKPGGSLRLSCAASGFTFSSYSMNWVRQAPGKGLEWVSSISSSSSYIYYADSVKGRFTISRDNAKNSLYLQMNSLRAEDTAVYYCARIIGGWLGDYWGQGTLVTVSS
VL: NIQMTQSPSSVSASVGDRVTITCRASQGISSWLAWYQQKPGKAPKLLIYAASSLRSGVPSRFSGSGSGTDFTLTISSLQPEDFATYYCQQANSFPPPTFGGGTKVEIK
notes: From a human scFv phage library, expressed in ExpiCHO-S
With B1 the EC50 [1] was 0.594 nM and 0.086 µg/mL, the EC50 [2] was 0.124 nM and the Kd [3] was 0.991 nM. It also gave a koff [3] of 0.00216 s⁻¹ and a kon [3] of 2.18e+06 M⁻¹ s⁻¹.

B2: Ab-II (conjugate)
VH: B1 VH
VL: B1 VL
For B2, the GI50 [4] was 17 nM, the GI50 [5] was 0.35 nM and the GI50 [6] was 0.21 nM.

B3: Ab-II antibody-drug conjugate (antibody, DAR 5.3, V domains shown)
VH: B1 VH
VL: B1 VL
modifications: Compound 1 conjugated through its maleimide group to antibody cysteine side chains after partial reduction of the disulfide bonds; positions not given; DAR 5.3
notes: Calculated DAR 5.3; also called anti-BCAM antibody-drug conjugate Ab-II
With B3 the EC50 [7] was 0.269 nM.
